These results are taken from publication PMC4938799, “LD Motif Recognition by Talin: Structure of the Talin-DLC1 Complex” (Structure(London, England:1993), 2016).

The assay concerns endogenous RIAM. Nature of the assay: GST pull-down of endogenous RIAM in A549 cells. The following applies: A549 cell extracts, anti-RIAM immunoblot. It is filed as cell-based, human. The text has this:
However, as talin R8 interacts with RIAM ([Goult et al., 2013b]) and paxillin (shown here) in addition to DLC1, we used several approaches to evaluate whether binding of talin R8 to endogenous RIAM or paxillin might have contributed to the observed results. For RIAM, the level of expression in the cell lines used here varied from very low to undetectable. To detect RIAM protein in any of the cell extracts, we had to use an anti-RIAM immunoprecipitation step followed by anti-RIAM immunoblotting. Using these conditions, endogenous RIAM was detected in A549 and H358 cells, but not in 293T cells (Figure S5A).
Figure S5, related to figure 6. […]
form a detectable complex with GST-talin R8.
(A) The expression of endogenous RIAM in cell lines. Cell extracts were subjected to immunoprecipitation followed by immunoblotting with anti-RIAM antibody.
(B) A complex between GST-talin R8 and endogenous RIAM is undetectable in A549 cells.
A549 cells were co-transfected with GFP-DLC1 and the GST constructs indicated. Cell extracts were subject to a glutathione bead pull down assay followed by immunoblotting with anti-GST and anti-RIAM antibodies on the same membrane (left). No complex between GST-talin R8 and RIAM could be detected. Under the same conditions, wild-type GST-R8 pulled-down the co-transfected GFP-DLC1; the immunoblot with anti-GST and anti-DLC1 on the same membrane is shown (right). […]
On the technique in general: A western blot detects proteins with antibodies after separation by electrophoresis.

B1: GST-R8: GST-tagged talin R8, amino acids 1,453–1,580 (protein)
chain: NSQAGQQGLVEPTQFARANQAIQMACQSLGEPGCTQAQVLSAATIVAKHTSALCNSCRLASARTANPTAKRQFVQSAKEVANSTANLVKTIKALDGDFTEENRAQCRAATAPLLEAVDNLSAFASNPE
modifications: left off: GST, end not stated, kept
Turning to B1, the “complex with endogenous RIAM” value is given as “did not detect a GST-R8 complex”. Besides, where the note is “listed as GST-talin R8”, the “complex with endogenous RIAM” value is recorded as “undetectable”.
